Test results from patent US20110098212A1 (LONDON SCHOOL OF HYGIENE AND TROPICAL MEDICINE, published 2011).

T1: chemokine receptor CCR1 (human, UniProt P32246 1-355)
T1 sequence (looked up): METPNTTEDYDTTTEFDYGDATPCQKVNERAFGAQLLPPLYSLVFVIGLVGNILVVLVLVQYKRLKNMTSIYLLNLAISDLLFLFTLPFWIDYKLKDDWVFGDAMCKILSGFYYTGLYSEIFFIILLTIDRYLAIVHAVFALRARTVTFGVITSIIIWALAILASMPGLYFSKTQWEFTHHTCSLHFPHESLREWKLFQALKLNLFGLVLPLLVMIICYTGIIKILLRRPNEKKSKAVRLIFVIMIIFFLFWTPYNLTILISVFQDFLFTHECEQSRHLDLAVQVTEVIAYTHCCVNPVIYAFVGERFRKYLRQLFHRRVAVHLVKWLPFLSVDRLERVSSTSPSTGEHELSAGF

T2: chemokine receptor CCR6 (human, UniProt P51684 1-374)
T2 sequence (looked up): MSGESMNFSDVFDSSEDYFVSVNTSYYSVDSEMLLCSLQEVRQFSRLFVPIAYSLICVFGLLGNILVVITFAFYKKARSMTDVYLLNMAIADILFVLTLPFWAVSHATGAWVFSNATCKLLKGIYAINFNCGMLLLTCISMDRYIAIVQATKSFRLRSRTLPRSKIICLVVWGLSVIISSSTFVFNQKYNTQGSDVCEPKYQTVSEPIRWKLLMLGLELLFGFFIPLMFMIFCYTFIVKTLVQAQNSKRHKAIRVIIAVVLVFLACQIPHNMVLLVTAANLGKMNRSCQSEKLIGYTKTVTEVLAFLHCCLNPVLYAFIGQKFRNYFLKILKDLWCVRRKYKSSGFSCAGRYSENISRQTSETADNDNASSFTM

T3: chemokine receptor CCR4 (human, UniProt P51679 1-360)
T3 sequence (looked up): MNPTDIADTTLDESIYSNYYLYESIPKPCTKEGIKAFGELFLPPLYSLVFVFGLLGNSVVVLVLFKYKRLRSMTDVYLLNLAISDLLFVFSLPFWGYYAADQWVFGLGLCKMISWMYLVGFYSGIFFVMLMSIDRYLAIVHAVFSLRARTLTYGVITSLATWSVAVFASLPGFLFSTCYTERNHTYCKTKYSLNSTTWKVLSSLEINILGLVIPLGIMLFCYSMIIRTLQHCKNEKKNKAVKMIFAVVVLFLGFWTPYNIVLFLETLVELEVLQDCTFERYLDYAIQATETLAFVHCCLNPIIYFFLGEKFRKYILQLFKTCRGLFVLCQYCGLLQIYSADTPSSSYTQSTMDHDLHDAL


Legend:
chemokine receptor CCR1 = biological target: T1, chemokine receptor CCR1; assay: cell-based or functional assay
chemokine receptor CCR8 = chemokine receptor CCR8 (human, UniProt P51685 1-355); assay: cell-based or functional assay
chemokine receptor CCR6 = biological target: T2, chemokine receptor CCR6; assay: cell-based or functional assay
chemokine receptor CCR4 = biological target: T3, chemokine receptor CCR4; assay: cell-based or functional assay
[1] = biological target: human chemokine receptor CCR5 (human, UniProt P51681 1-352)
Sequence of human chemokine receptor CCR5 (P51681 whole entry): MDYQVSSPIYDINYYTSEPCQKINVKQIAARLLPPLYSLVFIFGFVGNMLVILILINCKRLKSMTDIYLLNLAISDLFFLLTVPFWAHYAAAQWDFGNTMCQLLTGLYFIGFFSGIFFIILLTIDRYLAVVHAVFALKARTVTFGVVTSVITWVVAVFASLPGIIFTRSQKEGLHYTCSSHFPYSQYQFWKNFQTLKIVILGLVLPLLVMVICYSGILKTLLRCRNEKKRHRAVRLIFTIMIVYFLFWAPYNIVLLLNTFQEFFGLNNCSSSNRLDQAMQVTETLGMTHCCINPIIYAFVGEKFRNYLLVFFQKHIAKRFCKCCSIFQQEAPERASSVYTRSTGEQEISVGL

Binder | EC50, calcium mobilisation in CCR1-CHO cells (chemokine receptor CCR1) [nM] | EC50, calcium mobilisation in CCR8-CHO cells (chemokine receptor CCR8) [nM] | calcium mobilisation at 10 nM U83A, percent of the response to endogenous ligand (chemokine receptor CCR8) [%] | calcium mobilisation at 100 nM U83A, percent of the response to endogenous ligand (chemokine receptor CCR8) [%] | EC50, calcium mobilisation in CCR6-CHO cells (chemokine receptor CCR6) [nM] | calcium mobilisation at 10 nM U83A, percent of the response to endogenous ligand (chemokine receptor CCR6) [%] | calcium mobilisation at 100 nM U83A, percent of the response to endogenous ligand (chemokine receptor CCR6) [%] | minimal effective dose, calcium mobilisation (chemokine receptor CCR6) [nM] | EC50, calcium mobilisation in CCR4-CHO cells (chemokine receptor CCR4) [nM] | calcium mobilisation at 10 nM U83A, percent of the response to endogenous ligand (chemokine receptor CCR4) [%] | calcium mobilisation at 100 nM U83A, percent of the response to endogenous ligand (chemokine receptor CCR4) [%] | minimal effective dose, calcium mobilisation (chemokine receptor CCR4) [nM] | calcium mobilisation at 10 nM U83A, percent of the response to endogenous ligand (chemokine receptor CCR1) [%] | minimal effective dose, calcium mobilisation (chemokine receptor CCR1) [nM] | IC50 [1] [nM]
CCL3/MIP-1alpha (ligand, human, UniProt P10147 27-92, looked up) ADTPTACCFSYTSRQIPQNFIADYFETSSQCSKPGVIFLTKRSRQVCADPSEEWVQKYVSDLELSA | 2.75 |  |  |  |  |  |  |  |  |  |  |  |  |  | 
HHV-6 U83A, native full length mature chemokine (ligand) FICSSPDAELFSEKSRMSSSVLLGCLLCCMDWSAAVPGKTEPFRKLFDAIMIKKLKSCSAAYPSDLEQGSMCDMADASPTSLELGLSKLDKES | 9.17 | 6.42 | 65 | 85 | 10.3 | 35 | 80 | 7.5 | 8.96 | 50 | 84 | 7.5 | 60 | 7.5 | 0.11
